Reference: patent US20120225088, “COMPOSITIONS AND METHODS FOR TREATING CANCER AND OTHER DISEASES” (published 2012)

What was measured:
Conditions in all cases: tags: endogenous on Ramos Burkitt's lymphoma cells; label: 5' FITC or Cy3; stem-loop hairpin
[1] = target: T1, membrane-bound IgM (mIgM, immunoglobulin heavy mu chain of B-cell receptor) (Homo sapiens, UniProt P01871 P01871:1-474); assay: flow; Bmax/2 on Ramos cells, 4 C, 5 mM MgCl2
Description: (§1) All the in vitro experiments were done using a binding buffer composed of RPMI 1640 and 4.5 g/L glucose (Sigma-Aldrich) and 5 mM MgCl₂ for monomers, 20 mM MgCl₂ for multimers (Sigma-Aldrich), 100 mg/L tRNA (Sigma-Aldrich), 100 mg/L single stranded DNA (Sigma-Aldrich), 100 mg/L BSA (Sigma-Aldrich) and binding was analyzed for binding using flow cytometry in binding buffer (Acurri C6) using binding buffer. We used 20 mM Mg⁺² for optimal for the folding of the aptamer in vitro and 5 mM Mg⁺² for experiments in vivo. The binding buffer consists of tRNA and single stranded DNA that are capable of scavenging Mg⁺² thereby reducing the effective concentration of Mg ions. […]
(§2) Cell Binding Assays. Affinity of each construct was evaluated by incubating Ramos cells (2.5×10⁵) with a series of FITC or Cy3 labeled constructs in a 50 μL of binding buffer on ice for 45 min Cells were then washed with lmL of wash buffer at 4° C. and resuspended in 100 μL of wash buffer. The binding of the constructs was analyzed using flow cytometry by counting 10,000 events for each concentration. […] Binding at respective concentrations and absolute fluorescence intensity difference was used for the binding curves. When calculating the relative binding constant, binding curves were fitted with median fluorescence intensity observed for each histogram and observed Bmax/2 was used as the binding constant. […]

[2] = target: T1, membrane-bound IgM (mIgM, …); assay: flow; Bmax/2 (Kd') on Ramos cells, 4 C, 5 mM MgCl2
Description: as §1, §2

[3] = target: T1, membrane-bound IgM (mIgM, …); assay: flow; Bmax/2 on Ramos cells, 4 C
Description: as §1, §2

T1 sequence (P01871 whole entry, one chain of several): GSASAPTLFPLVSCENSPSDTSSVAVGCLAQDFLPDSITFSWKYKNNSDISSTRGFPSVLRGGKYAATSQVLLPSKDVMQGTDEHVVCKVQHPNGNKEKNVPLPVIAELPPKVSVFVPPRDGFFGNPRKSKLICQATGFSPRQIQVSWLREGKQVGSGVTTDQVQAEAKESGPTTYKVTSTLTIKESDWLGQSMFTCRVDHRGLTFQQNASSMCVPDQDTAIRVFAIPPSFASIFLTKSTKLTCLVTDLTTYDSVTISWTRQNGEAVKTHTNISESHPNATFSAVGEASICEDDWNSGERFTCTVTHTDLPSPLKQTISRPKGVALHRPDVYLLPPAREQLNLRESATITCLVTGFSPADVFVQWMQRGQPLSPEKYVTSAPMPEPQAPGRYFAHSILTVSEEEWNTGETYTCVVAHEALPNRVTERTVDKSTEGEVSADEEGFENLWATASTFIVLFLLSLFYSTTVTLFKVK

Row | Binder | Kd [1] | also measured
1 | CGTGGAGGATAGTTCGGTGGCTTCAGGGTCTCCTCCCG (ssDNA) [TD05.7] | 148 nM | –
2 | ACCGTGGAGGATAGTTCGGTGGCTGTTCAGGGTCTCCTCCACGGT (ssDNA) [TD05] | – | Kd [2]: 359 nM
3 | AGGAGGATAGTTCGGTGGCTGTTCAGGGTCTCCTCCT (ssDNA) [TD05.1] | 53 nM | –
4 | AGGAGGATAGTTCGGTGGCTGTTCAGGGTCTCCTCCT (ssDNA, LNA at last four nucleotides (3' stem pyrimidines TCCT) [34,35,36,37 (LNA)]) [TD05.17] | – | Kd [3]: 43 nM
